The target in the experiment is senataxin (SETX), endogenous (human (endogenous in MRC-5)) (UniProt Q7Z333). Description: proximity ligation; Duolink PLA in methanol-fixed MRC-5 cells with antibodies against the two endogenous proteins; cells mock treated (DMSO), 25 uM CPT for 10 min, or 50 uM alpha-amanitin overnight followed by CPT.
UniProt Q7Z333, sequence (Q7Z333 whole entry): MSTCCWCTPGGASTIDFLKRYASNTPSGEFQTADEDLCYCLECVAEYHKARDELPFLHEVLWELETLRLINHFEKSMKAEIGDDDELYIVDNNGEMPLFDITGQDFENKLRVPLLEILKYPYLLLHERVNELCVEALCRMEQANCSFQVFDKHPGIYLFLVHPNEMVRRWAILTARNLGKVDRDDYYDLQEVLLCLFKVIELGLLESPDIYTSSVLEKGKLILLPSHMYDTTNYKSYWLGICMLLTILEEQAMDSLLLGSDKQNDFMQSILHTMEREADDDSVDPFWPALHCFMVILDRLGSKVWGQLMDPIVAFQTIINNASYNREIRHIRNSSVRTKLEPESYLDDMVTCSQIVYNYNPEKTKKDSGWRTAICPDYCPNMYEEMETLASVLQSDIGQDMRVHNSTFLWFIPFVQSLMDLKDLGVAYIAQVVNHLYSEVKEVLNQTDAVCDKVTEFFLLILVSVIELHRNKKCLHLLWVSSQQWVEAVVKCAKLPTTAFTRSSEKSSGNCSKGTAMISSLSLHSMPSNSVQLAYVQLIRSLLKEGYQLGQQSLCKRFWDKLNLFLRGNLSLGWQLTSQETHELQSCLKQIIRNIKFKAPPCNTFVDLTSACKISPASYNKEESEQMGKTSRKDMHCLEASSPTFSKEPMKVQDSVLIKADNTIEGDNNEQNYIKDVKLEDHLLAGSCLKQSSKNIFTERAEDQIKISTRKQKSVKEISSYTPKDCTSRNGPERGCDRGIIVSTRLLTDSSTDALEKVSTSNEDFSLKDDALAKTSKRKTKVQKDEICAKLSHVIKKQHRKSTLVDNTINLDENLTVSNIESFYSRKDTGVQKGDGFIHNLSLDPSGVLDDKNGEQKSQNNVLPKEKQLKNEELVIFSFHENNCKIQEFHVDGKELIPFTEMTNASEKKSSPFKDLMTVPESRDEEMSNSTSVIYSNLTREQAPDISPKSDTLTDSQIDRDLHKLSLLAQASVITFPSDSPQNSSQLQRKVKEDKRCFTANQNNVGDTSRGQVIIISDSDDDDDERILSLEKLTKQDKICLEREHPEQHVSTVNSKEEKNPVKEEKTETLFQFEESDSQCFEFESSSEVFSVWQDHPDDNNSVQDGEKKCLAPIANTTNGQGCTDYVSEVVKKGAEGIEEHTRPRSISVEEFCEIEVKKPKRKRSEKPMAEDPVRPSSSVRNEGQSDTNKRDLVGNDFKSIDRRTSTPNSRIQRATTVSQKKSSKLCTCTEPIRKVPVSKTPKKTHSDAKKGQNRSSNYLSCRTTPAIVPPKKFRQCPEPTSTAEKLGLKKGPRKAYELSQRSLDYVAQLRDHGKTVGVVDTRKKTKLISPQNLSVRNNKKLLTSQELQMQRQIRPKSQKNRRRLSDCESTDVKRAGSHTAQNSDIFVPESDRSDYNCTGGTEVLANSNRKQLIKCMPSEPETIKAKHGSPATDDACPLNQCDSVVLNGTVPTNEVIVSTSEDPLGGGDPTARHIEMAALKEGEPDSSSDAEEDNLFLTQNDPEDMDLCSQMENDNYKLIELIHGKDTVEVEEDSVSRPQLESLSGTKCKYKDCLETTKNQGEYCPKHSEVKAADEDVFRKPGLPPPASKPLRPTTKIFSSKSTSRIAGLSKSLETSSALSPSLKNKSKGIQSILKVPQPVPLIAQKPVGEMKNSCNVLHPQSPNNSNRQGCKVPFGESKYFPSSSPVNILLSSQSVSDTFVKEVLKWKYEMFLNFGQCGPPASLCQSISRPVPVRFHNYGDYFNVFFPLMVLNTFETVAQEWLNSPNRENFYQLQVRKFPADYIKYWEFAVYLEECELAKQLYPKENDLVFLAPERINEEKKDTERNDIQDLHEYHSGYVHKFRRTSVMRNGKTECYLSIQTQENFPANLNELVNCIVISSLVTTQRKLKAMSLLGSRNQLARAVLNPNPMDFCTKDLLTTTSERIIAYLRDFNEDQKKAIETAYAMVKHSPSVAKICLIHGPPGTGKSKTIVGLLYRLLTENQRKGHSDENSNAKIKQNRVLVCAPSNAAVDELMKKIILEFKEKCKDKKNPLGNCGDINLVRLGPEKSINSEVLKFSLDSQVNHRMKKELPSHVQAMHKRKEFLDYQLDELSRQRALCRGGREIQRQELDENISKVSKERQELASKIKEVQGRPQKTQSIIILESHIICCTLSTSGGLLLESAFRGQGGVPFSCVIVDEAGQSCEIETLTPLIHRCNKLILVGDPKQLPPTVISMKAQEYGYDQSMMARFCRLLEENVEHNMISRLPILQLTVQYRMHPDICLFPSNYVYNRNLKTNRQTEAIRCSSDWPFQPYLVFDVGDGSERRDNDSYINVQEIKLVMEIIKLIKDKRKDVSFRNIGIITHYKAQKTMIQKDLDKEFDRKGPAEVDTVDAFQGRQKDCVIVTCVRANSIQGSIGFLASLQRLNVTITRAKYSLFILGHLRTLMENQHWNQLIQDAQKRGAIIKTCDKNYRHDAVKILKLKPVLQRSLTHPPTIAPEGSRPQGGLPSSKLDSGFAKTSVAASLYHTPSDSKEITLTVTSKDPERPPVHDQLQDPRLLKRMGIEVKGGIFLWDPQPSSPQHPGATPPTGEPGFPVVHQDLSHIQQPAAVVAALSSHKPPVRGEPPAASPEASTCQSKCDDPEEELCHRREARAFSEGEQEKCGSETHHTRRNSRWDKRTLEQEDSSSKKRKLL

As for “ubiquitin specific peptidase 11 (USP11), endogenous (from UniProt P51784 1-963)”, the fold increase in PLA signal after CPT (against unperturbed cells) was found to be 5 fold.

For the origin of these results see article PMC8443744.
